Source: patent US7527943B2, “Compositions of orthogonal glutamyl-tRNA and aminoacyl-tRNA synthetase pairs and uses thereof” (The Scripps Research Institute, priority 2003, dated 2009)

What was measured:
[1] = test system: β-lactamase reporter gene containing an amber mutation at the permissive site Ala184; type: cell-based, E. coli; settings: for ampicillin IC50 fold greater with AE(GC) tRNA than with AE(GU) tRNA: same synthetase co-expressed
Description: Ampicillin IC50 value measurements: To examine the orthogonality of tRNAs, 10 μL of E. coli DH10B cells (1 cfu/μL) carrying a tRNA-expressing plasmid were plated on a series of LB agar plates containing chloramphenicol and varying concentrations of ampicillin. To measure the IC50 values for cells carrying both tRNA- and synthetase-expressing plasmids, cells were plated on LB agar plates containing chloramphenicol, kanamycin, and varying concentrations of ampicillin. In the initial series, cells were plated on five ampicillin concentrations varying from 0 to 1000 μg/mL and incubated overnight at 37° C. In subsequent series, cells were plated on a narrower ampicillin concentration range surrounding the value initial ampicillin IC50 value estimate. […] Measurements were made in duplicate or triplicate for each cell strain.
Orthogonality of tRNAs: To test the activity and cross-reactivity of the AE(GU), AQ(GU), and AQ(GC) tRNAs, their genes were inserted into plasmid pACKO-A184TAG. E. coli cells were transformed with the resulting plasmids, pAC-AE(GU), pAC-AQ(GU), and pAC-AQ(GC), and the ampicillin IC50 values for the cells were assayed. The tRNA-expressing pAC-based plasmids carry a β-lactamase reporter gene containing an amber mutation at the permissive site Ala184, which serves as a useful reporter for amber codon suppression. Acylation of an amber suppressor tRNA causes the incorporation of the activated amino acid at position 184 of β-lactamase, resulting in suppression of the amber stop codon, production of active full-length β-lactamase and resistance to ampicillin. Because an orthogonal tRNA should not cross-react with endogenous aminoacyl-tRNA synthetases, strains transformed with an orthogonal suppressor tRNA alone should survive only on low concentrations of ampicillin. To assess the orthogonality of designed tRNAs, E. coli transformants were plated on LB agar plates containing varying concentrations of ampicillin (FIG. 2).

[2] = test system: whole halobacterial tRNA; experiment: in vitro aminoacylation assay with [3H]-glutamic acid, whole halobacterial tRNA; type: biochemical, Halobacterium sp. NRC-1; settings: 750 nM synthetase, 15 minutes at 37° C.
Description: (§1) In vitro aminoacylation assays: Reactions were carried out as described previously (see, e.g., Hoben, P. and Soll, D. (1985) Glutaminyl-tRNA synthetase of Escherichia coli. Methods Enzymol., 113:55-59). Each 20-μL reaction contained 50 mM Tris-HCl (pH 7.5), 30 mM KCl, 20 mM MgCl2, 0.1 mg/mL BSA, 5 mM glutathione, 2.5 mM ATP, 100 nM 1-[G-^3H]Glutamic acid (Amersham), 750 nM aminoacyl-tRNA synthetase, and 40 μM whole halobacterial tRNA. Reactions were allowed to proceed for 15 minutes at 37° C.
Orthogonality of archaeal glutamyl-tRNA synthetases in E. coli: The ampicillin IC50 measurements described above provide insights into the orthogonality of consensus-designed tRNAs, but provide no information about the orthogonality of archaeal glutamyl-tRNA synthetases in E. coli. To investigate synthetase orthogonality, the AfERS, MnERS, MtERS, and PhERS genes were inserted into a protein overexpression vector. E. coli glutamyl-tRNA synthetase (EcERS) was inserted into the same vector for use as a control. Synthetases were overexpressed in E. coli, purified to homogeneity, and used in an in vitro aminoacylation assay with whole tRNA prepared from either E. coli or the halophilic archaebacterium Halobacterium sp. NRC-1. […] In these experiments, it is unclear why AfERS and MmERS could not aminoacylate whole halobacterial tRNA in vitro (≦5 pmol/L). Without being limited to one theory, it is possible that the enzyme purification and/or assay conditions employed were deleterious to the aminoacylation activity of AfERS and MmERS. Another possibility is that subtle differences in tRNA identity elements might preclude recognition of a given archaeal tRNA^Glu by all archaeal glutamyl-tRNA synthetases. To test the latter, the activity of MmERS was investigated using the in vitro aminoacylation assay with whole tRNA derived from E. coli expressing the AE(GC) tRNA.

[3] = test system: whole E. coli tRNA; experiment: in vitro aminoacylation assay with [3H]-glutamic acid, whole E. coli tRNA; type: biochemical; settings: 750 nM synthetase, 15 minutes at 37° C.
Description: as §1
(§2) Orthogonality of archaeal glutamyl-tRNA synthetases in E. coli: The ampicillin IC50 measurements described above provide insights into the orthogonality of consensus-designed tRNAs, but provide no information about the orthogonality of archaeal glutamyl-tRNA synthetases in E. coli. To investigate synthetase orthogonality, the AfERS, MnERS, MtERS, and PhERS genes were inserted into a protein overexpression vector. E. coli glutamyl-tRNA synthetase (EcERS) was inserted into the same vector for use as a control. Synthetases were overexpressed in E. coli, purified to homogeneity, and used in an in vitro aminoacylation assay with whole tRNA prepared from either E. coli or the halophilic archaebacterium Halobacterium sp. NRC-1. […] In these experiments, it is unclear why AfERS and MmERS could not aminoacylate whole halobacterial tRNA in vitro (≦5 pmol/L). […]

[4] = test system: whole tRNA derived from E. coli expressing the AE(GC) tRNA; experiment: in vitro aminoacylation assay with whole tRNA from E. coli expressing AE(GC) tRNA; type: biochemical
Description: as §1, §2

[5] = synthetase co-expressed with AE(GU) tRNA

B1: PhERS: glutamyl-tRNA synthetase from P. horikoshii (protein, listed as Pyrococcus horikoshii)
chain: MDVEKIALKHALINAIEHGGKANLKAVIGKVLGENPELRPRAKEIIPIINKVVEEVNSLARDEQLEKLKDIYPEYFEKKEEKKEKKGLPLLPKAEKGKVVTRFAPNPDGAFHLGNARAAILSYEYAKMYGGKFILRFDDTDPKVKRPEPIFYKMIIEDLEWLGIKPDEIVYASDRLEIYYKYAEELIKMGKAYVCTCPPEKFRELRDKGIPCPHRDEPVEVQLERWKKMLNGEYKEGEAVVRIKTDLNHPNPAVRDWPALRIIDNPNHPRTGNKYRVWPLYNFASAIDDHELGVTHIFRGQEHAENETRQRYIYEYFGWEYPVTIHHGRLSIEGVVLSKSKTRKGIEEGKYLGWDDPRLGTIRALRRRGILPEAIKELIIEVGLKKSDATISWENLAAINRKLVDPIANRYFFVADPIPMEVEGAPEFIAEIPLHPDHPERGVRRLKFTPERPVYVSKDDLNLLKPGNFVRLKDLFNVEILEVGDKIRARFYSFEYEIAKKNRWKMVHWVTEGRPCEVIIPEGDELVVRKGLLEKDAKVQVNEIVQFERFGFVRIDRIEGDKVIAIYAHK
ampicillin IC50 fold greater with AE(GC) tRNA than with AE(GU) tRNA [1]: ~3.5 fold | ampicillin IC50 fold higher than cells expressing AE(GU) alone [1, 5]: 12 fold | amber suppression efficiency fold less than that of the tyrosyl-tRNA synthetase ([1]; together with the AE(GC) tRNA in E. coli): ~2 fold | aminoacylation of whole archaeal (halobacterial) tRNA with [3H]-glutamic acid [2]: 1100 pmol/L

B2: AE(GC): archaeal glutamyl consensus-derived amber suppressor tRNA, GC base pair at position 10-28 (nucleic acid)
chain: GCCCCGGUGGUGUAGCCCGGCCAAGCACGCGGGCCUCUAAAGCCCGCGACCCGGGUUCAAAUCCCGGCCGGGGCACCA
modifications: chemistry not fully specified
ampicillin IC50 fold increase relative to cells expressing AE(GU) tRNA alone ([1]; tRNA alone, no synthetase): 4 fold

B3: MtERS: glutamyl-tRNA synthetase from M. thermoautotrophicum (protein, listed as Methanobacterium thermoautotrophicum)
chain: VVPVEDLVYRYALLNAVKHRGRANPGAVMGAVMSNEPELRKMAPQVKEAVEAAVERVNSLSPEEQQQEMERLGLEITERKQKKRKGLRELAGVKGEVVLRFAPNPSGPLHIGHARAAILNHEYARKYDGRLILRIEDTDPRRVDPEAYDMIPADLEWLGVEWDETVIQSDRMETYYEYTEKLIERGGAYVCTCRPEEFRELKNRGEACHCRSLGFRENLQRWREMFEMKEGSAVVRVKTDLNHPNPAIRDWVSMRIVEAEHPRTGTRYRVYPMMNFSVAVDDHLLGVTHVLRGKDHLANREKQEYLYRHLGWEPPEFIHYGRLKMDDVALSTSGAREGILRGEYSGWDDPRLGTLRAIARRGIRPEAIRKLMVEIGVKIADSTMSWKKIYGLNRSILEEEARRYFFAADPVKLEVVGLPGPVRVERPLHPDHPEIGNRVLELRGEVYLPGDDLGEGPLRLIDAVNVIYSGGELRYHSEGIEEARELGASMIHWVPAESALEAEVIMPDASRVRGVIEADASELEVDDVVQLERFGFARLDSAGPGMVFYYAHK
ampicillin IC50 fold higher than cells expressing AE(GU) alone [1, 5]: 6 fold | aminoacylation of whole archaeal (halobacterial) tRNA with [3H]-glutamic acid [2]: 530 pmol/L

B4: AfERS: glutamyl-tRNA synthetase from A. fulgidus (protein, listed as Archaeoglobus fulgidus)
chain: VKEVIMKYVVQNAAKYGKASEKAVMGKVMAENPELRKKAKEVLELVKECITEFEALSEEVRKELIKKYSMDSEAKRELETKKLPELEGAEKGKVVMRFAPNPNGPPTLGSARGIIVNGEYAKMYEGKYIIRFDDTDPRTKRPMIEAYEWYLEDIEWLGYKPDEVIYASRRIPIYYDYARKLIEMGKAYTCFCSQEEFKKFRDSGEECPHRNISVEDTLEVWERMLEGDYEEGEVVLRIKTDMRHKDPAIRDWVAFRIIKESHPLVGDKYVVYPTLDFESAIEDHLLGITHIIRGKDLIDSERRQRYIYEYFGWIYPITKHWGRVKIFEFGKLSTSSIKKDIERGKYEGWDDPRLPTLRAFRRRGFEPEAIKSFFLSLGVGENDVSVSLKNLYAENRKIIDRKANRYFFIWGPVKIEIVNLPEKKEVELPLNPHTGEKRRLKGERTIYVTKDDFERLKGQVVRLKDFCNVLLDEKAEFMGFELEGVKKGKNIIHWLPESEAIKGKVIGEREAEGLVERNAVRDVGKVVQFERFAFCKVESADEELVAVYTHP
ampicillin IC50 fold higher than cells expressing AE(GU) alone [1, 5]: 7 fold

B5: EcERS: E. coli glutamyl-tRNA synthetase, used as a control (protein, UniProt P04805 1-471, looked up)
Glutamate--tRNA ligase: MKIKTRFAPSPTGYLHVGGARTALYSWLFARNHGGEFVLRIEDTDLERSTPEAIEAIMDGMNWLSLEWDEGPYYQTKRFDRYNAVIDQMLEEGTAYKCYCSKERLEALREEQMAKGEKPRYDGRCRHSHEHHADDEPCVVRFANPQEGSVVFDDQIRGPIEFSNQELDDLIIRRTDGSPTYNFCVVVDDWDMEITHVIRGEDHINNTPRQINILKALKAPVPVYAHVSMINGDDGKKLSKRHGAVSVMQYRDDGYLPEALLNYLVRLGWSHGDQEIFTREEMIKYFTLNAVSKSASAFNTDKLLWLNHHYINALPPEYVATHLQWHIEQENIDTRNGPQLADLVKLLGERCKTLKEMAQSCRYFYEDFAEFDADAAKKHLRPVARQPLEVVRDKLAAITDWTAENVHHAIQATADELEVGMGKVGMPLRVAVTGAGQSPALDVTVHAIGKTRSIERINKALDFIAERENQQ
aminoacylation of whole E. coli tRNA with [3H]-glutamic acid [3]: 14,000 pmol/L | aminoacylation of whole archaeal (halobacterial) tRNA with [3H]-glutamic acid [2]: 1.7 pmol/L

B6: MmERS: glutamyl-tRNA synthetase from M. mazei (protein, listed as Methanosarcina mazeii)
chain: MTLSPEDIKIIEKYALQNAVKYGKAPQPKAVMGKVMGECPQLRADPSGVSAALENIVSEIAKGNPEAWEARLSEIAPELIEALSVKKEPDKGLKPLEGAETGKVVMRFAPNPNGPATLGSSRGMVVNSEYVKVYKGKFILRFDDTDPDIKRPMLEAYDWYMDDFKWLGVVPDQVVRASDRFPIYYDYARKLIEMGKAYVCFCKGEDFKRLKDSKKACPHRDTDPEENLMHWEKMLAGEYEDQQAVLRIKTDIEHKDPALRDWGAFRIRKMSHPRPEIGNKYIVWPLLDFAGAIEDHELGMTHIIRGKDLIDSEKRQTYIYKYFGWTYPKTTHWGRVKIHEFGKFSTSTLRKAIESGEYSGWDDPRLPTIRAIRRRGIRAEALKKFMIEMGVGMTDVSISMESLYAENRKIVDPVANRYFFVWNPVELEIEGMKPVVAKVPRHPTDHARGMREISIENKVLVCAEDIEKLNVGSVLRLKDLCNVEITSLSPLRVKRSETSLEDLKKAKGKIIHWVPVDGIPVKVCGPEGDIEGTGERGIETELDNIVQFERFGFCRIDAVDGENVVAYFAHK
ampicillin IC50 fold greater with AE(GC) tRNA than with AE(GU) tRNA [1]: 4.5 fold | ampicillin IC50 fold higher than cells expressing AE(GU) alone [1, 5]: 20 fold | ampicillin IC50 fold lower than M. jannaschii-derived tyrosine pair [1, 5]: 4.5 fold | ampicillin IC50 fold lower than M. thermoautotrophicum-derived leucine pair [1, 5]: 10 fold | aminoacylation activity [4]: no activity was observed
